Where no end group is shown, it is not given here. [ ]: non-standard residue; d: D form. Aib = CC(C)(N)C(=O)O
Molecular target: human housekeeping core (20S) proteasome purified from erythrocytes (human), P60900
Test: cell-based or functional assay

For GRKKRRQ[Aib]GQRRKKRG [Tat5-8,9 Aib], the AC50, ChT-L activity (Suc-LLVY-MCA) was 183 nM and the Max activation fold, ChT-L activity was 8.9 fold.

From patent publication US20220332758A1, “PEPTIDE-BASED COMPOSITIONS AND METHODS FOR TREATING ALZHEIMER'S DISEASE” (Board of Regents, The Universityof Texas System, priority 2019, published 2022)
